From patent US20100272723A1 (Xencor, published 2010)

biological target: T1, human CD19 (human, UniProt P15391 20-556); test: binding affinity relative to the parent H1L1 mAb (Example 5); assay and format not named on the sheet
T1 construct: also called B-cell surface antigen B4; B-cell antigen CD19
T1 sequence: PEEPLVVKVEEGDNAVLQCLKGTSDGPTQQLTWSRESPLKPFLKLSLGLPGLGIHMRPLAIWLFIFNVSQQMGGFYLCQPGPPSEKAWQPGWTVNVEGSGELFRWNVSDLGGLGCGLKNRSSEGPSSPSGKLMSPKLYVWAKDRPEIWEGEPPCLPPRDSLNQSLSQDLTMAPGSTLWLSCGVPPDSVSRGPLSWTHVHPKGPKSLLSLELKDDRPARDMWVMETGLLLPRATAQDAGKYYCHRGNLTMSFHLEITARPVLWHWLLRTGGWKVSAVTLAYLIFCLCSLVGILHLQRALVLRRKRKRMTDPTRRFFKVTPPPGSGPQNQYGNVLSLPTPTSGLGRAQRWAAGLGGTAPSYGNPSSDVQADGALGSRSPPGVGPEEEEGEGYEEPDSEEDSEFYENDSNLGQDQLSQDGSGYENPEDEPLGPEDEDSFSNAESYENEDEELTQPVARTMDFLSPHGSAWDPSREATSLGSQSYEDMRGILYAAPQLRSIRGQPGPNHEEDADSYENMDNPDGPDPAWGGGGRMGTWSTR

Binder	Fold change binding [fold]
H1.199 / L1.139 (antibody, V domains shown, vs H1L1 (Kabat): VH T57P/K58E/S100cT; VL S27eV/F96N; also called 4G7 H1.199_L1.139) VH: EVQLVESGGGLVKPGGSLKLSCAASGYTFTSYVMHWVRQAPGKGLEWIGYINPYNDGPEYNEKFQGRVTISSDKSISTAYMELSSLRSEDTAMYYCARGTYYYGTRVFDYWGQGTLVTVSS VL: DIVMTQSPATLSLSPGERATLSCRSSKSLLNVNGNTYLYWFQQKPGQSPQLLIYRMSNLASGVPDRFSGSGSGTEFTLTISSLEPEDFAVYYCMQHLEYPNTFGAGTKLEIK	2.36
H1.199 / L1.141 (antibody, V domains shown, vs H1L1 (Kabat): VH T57P/K58E/S100cT; VL A55N/F96N; also called 4G7 H1.199_L1.141) VH: EVQLVESGGGLVKPGGSLKLSCAASGYTFTSYVMHWVRQAPGKGLEWIGYINPYNDGPEYNEKFQGRVTISSDKSISTAYMELSSLRSEDTAMYYCARGTYYYGTRVFDYWGQGTLVTVSS VL: DIVMTQSPATLSLSPGERATLSCRSSKSLLNSNGNTYLYWFQQKPGQSPQLLIYRMSNLNSGVPDRFSGSGSGTEFTLTISSLEPEDFAVYYCMQHLEYPNTFGAGTKLEIK	4.02
H1.199 / L1.146 (antibody, V domains shown, vs H1L1 (Kabat): VH T57P/K58E/S100cT; VL S27eV/A55N/F96N; also called 4G7 H1.199_L1.146) VH: EVQLVESGGGLVKPGGSLKLSCAASGYTFTSYVMHWVRQAPGKGLEWIGYINPYNDGPEYNEKFQGRVTISSDKSISTAYMELSSLRSEDTAMYYCARGTYYYGTRVFDYWGQGTLVTVSS VL: DIVMTQSPATLSLSPGERATLSCRSSKSLLNVNGNTYLYWFQQKPGQSPQLLIYRMSNLNSGVPDRFSGSGSGTEFTLTISSLEPEDFAVYYCMQHLEYPNTFGAGTKLEIK	4.11
H1.199 / L1.148 (antibody, V domains shown, vs H1L1 (Kabat): VH T57P/K58E/S100cT; VL L27cQ/A55N/F96N; also called 4G7 H1.199_L1.148) VH: EVQLVESGGGLVKPGGSLKLSCAASGYTFTSYVMHWVRQAPGKGLEWIGYINPYNDGPEYNEKFQGRVTISSDKSISTAYMELSSLRSEDTAMYYCARGTYYYGTRVFDYWGQGTLVTVSS VL: DIVMTQSPATLSLSPGERATLSCRSSKSLQNSNGNTYLYWFQQKPGQSPQLLIYRMSNLNSGVPDRFSGSGSGTEFTLTISSLEPEDFAVYYCMQHLEYPNTFGAGTKLEIK	4.34
H1.199 / L1.152 (antibody, V domains shown, vs H1L1 (Kabat): VH T57P/K58E/S100cT; VL L27cQ/S27eV/F96N; also called 4G7 H1.199_L1.152) VH: EVQLVESGGGLVKPGGSLKLSCAASGYTFTSYVMHWVRQAPGKGLEWIGYINPYNDGPEYNEKFQGRVTISSDKSISTAYMELSSLRSEDTAMYYCARGTYYYGTRVFDYWGQGTLVTVSS VL: DIVMTQSPATLSLSPGERATLSCRSSKSLQNVNGNTYLYWFQQKPGQSPQLLIYRMSNLASGVPDRFSGSGSGTEFTLTISSLEPEDFAVYYCMQHLEYPNTFGAGTKLEIK	3.55
H1.201 / L1.155 (antibody, V domains shown, vs H1L1 (Kabat): VH D55S/S100cT; VL L27cQ/S27eV/A55N/F96I; also called 4G7 H1.201_L1.155) VH: EVQLVESGGGLVKPGGSLKLSCAASGYTFTSYVMHWVRQAPGKGLEWIGYINPYNSGTKYNEKFQGRVTISSDKSISTAYMELSSLRSEDTAMYYCARGTYYYGTRVFDYWGQGTLVTVSS VL: DIVMTQSPATLSLSPGERATLSCRSSKSLQNVNGNTYLYWFQQKPGQSPQLLIYRMSNLNSGVPDRFSGSGSGTEFTLTISSLEPEDFAVYYCMQHLEYPITFGAGTKLEIK	4.48
H1.201 / L1.160 (antibody, V domains shown, vs H1L1 (Kabat): VH D55S/S100cT; VL L27cQ/S27eV/G29A/A55N/F96I; also called 4G7 H1.201_L1.160) VH: EVQLVESGGGLVKPGGSLKLSCAASGYTFTSYVMHWVRQAPGKGLEWIGYINPYNSGTKYNEKFQGRVTISSDKSISTAYMELSSLRSEDTAMYYCARGTYYYGTRVFDYWGQGTLVTVSS VL: DIVMTQSPATLSLSPGERATLSCRSSKSLQNVNANTYLYWFQQKPGQSPQLLIYRMSNLNSGVPDRFSGSGSGTEFTLTISSLEPEDFAVYYCMQHLEYPITFGAGTKLEIK	4.51
H1.201 / L1.161 (antibody, V domains shown, vs H1L1 (Kabat): VH D55S/S100cT; VL L27cQ/S27eV/G29S/A55N/F96I; also called 4G7 H1.201_L1.161) VH: EVQLVESGGGLVKPGGSLKLSCAASGYTFTSYVMHWVRQAPGKGLEWIGYINPYNSGTKYNEKFQGRVTISSDKSISTAYMELSSLRSEDTAMYYCARGTYYYGTRVFDYWGQGTLVTVSS VL: DIVMTQSPATLSLSPGERATLSCRSSKSLQNVNSNTYLYWFQQKPGQSPQLLIYRMSNLNSGVPDRFSGSGSGTEFTLTISSLEPEDFAVYYCMQHLEYPITFGAGTKLEIK	3.89
H1.202 / L1.160 (antibody, V domains shown, vs H1L1 (Kabat): VH D55E/S100cT; VL L27cQ/S27eV/G29A/A55N/F96I; also called 4G7 H1.202_L1.160) VH: EVQLVESGGGLVKPGGSLKLSCAASGYTFTSYVMHWVRQAPGKGLEWIGYINPYNEGTKYNEKFQGRVTISSDKSISTAYMELSSLRSEDTAMYYCARGTYYYGTRVFDYWGQGTLVTVSS VL: DIVMTQSPATLSLSPGERATLSCRSSKSLQNVNANTYLYWFQQKPGQSPQLLIYRMSNLNSGVPDRFSGSGSGTEFTLTISSLEPEDFAVYYCMQHLEYPITFGAGTKLEIK	3.96
H1.202 / L1.161 (antibody, V domains shown, vs H1L1 (Kabat): VH D55E/S100cT; VL L27cQ/S27eV/G29S/A55N/F96I; also called 4G7 H1.202_L1.161) VH: EVQLVESGGGLVKPGGSLKLSCAASGYTFTSYVMHWVRQAPGKGLEWIGYINPYNEGTKYNEKFQGRVTISSDKSISTAYMELSSLRSEDTAMYYCARGTYYYGTRVFDYWGQGTLVTVSS VL: DIVMTQSPATLSLSPGERATLSCRSSKSLQNVNSNTYLYWFQQKPGQSPQLLIYRMSNLNSGVPDRFSGSGSGTEFTLTISSLEPEDFAVYYCMQHLEYPITFGAGTKLEIK	4.3
H1.203 / L1.155 (antibody, V domains shown, vs H1L1 (Kabat): VH D55S/K58E/S100cT; VL L27cQ/S27eV/A55N/F96I; also called 4G7 H1.203_L1.155) VH: EVQLVESGGGLVKPGGSLKLSCAASGYTFTSYVMHWVRQAPGKGLEWIGYINPYNSGTEYNEKFQGRVTISSDKSISTAYMELSSLRSEDTAMYYCARGTYYYGTRVFDYWGQGTLVTVSS VL: DIVMTQSPATLSLSPGERATLSCRSSKSLQNVNGNTYLYWFQQKPGQSPQLLIYRMSNLNSGVPDRFSGSGSGTEFTLTISSLEPEDFAVYYCMQHLEYPITFGAGTKLEIK	4.73
H1.203 / L1.160 (antibody, V domains shown, vs H1L1 (Kabat): VH D55S/K58E/S100cT; VL L27cQ/S27eV/G29A/A55N/F96I; also called 4G7 H1.203_L1.160) VH: EVQLVESGGGLVKPGGSLKLSCAASGYTFTSYVMHWVRQAPGKGLEWIGYINPYNSGTEYNEKFQGRVTISSDKSISTAYMELSSLRSEDTAMYYCARGTYYYGTRVFDYWGQGTLVTVSS VL: DIVMTQSPATLSLSPGERATLSCRSSKSLQNVNANTYLYWFQQKPGQSPQLLIYRMSNLNSGVPDRFSGSGSGTEFTLTISSLEPEDFAVYYCMQHLEYPITFGAGTKLEIK	1.76
H1.203 / L1.161 (antibody, V domains shown, vs H1L1 (Kabat): VH D55S/K58E/S100cT; VL L27cQ/S27eV/G29S/A55N/F96I; also called 4G7 H1.203_L1.161) VH: EVQLVESGGGLVKPGGSLKLSCAASGYTFTSYVMHWVRQAPGKGLEWIGYINPYNSGTEYNEKFQGRVTISSDKSISTAYMELSSLRSEDTAMYYCARGTYYYGTRVFDYWGQGTLVTVSS VL: DIVMTQSPATLSLSPGERATLSCRSSKSLQNVNSNTYLYWFQQKPGQSPQLLIYRMSNLNSGVPDRFSGSGSGTEFTLTISSLEPEDFAVYYCMQHLEYPITFGAGTKLEIK	2.92
H1.204 / L1.160 (antibody, V domains shown, vs H1L1 (Kabat): VH D55E/K58E/S100cT; VL L27cQ/S27eV/G29A/A55N/F96I; also called 4G7 H1.204_L1.160) VH: EVQLVESGGGLVKPGGSLKLSCAASGYTFTSYVMHWVRQAPGKGLEWIGYINPYNEGTEYNEKFQGRVTISSDKSISTAYMELSSLRSEDTAMYYCARGTYYYGTRVFDYWGQGTLVTVSS VL: DIVMTQSPATLSLSPGERATLSCRSSKSLQNVNANTYLYWFQQKPGQSPQLLIYRMSNLNSGVPDRFSGSGSGTEFTLTISSLEPEDFAVYYCMQHLEYPITFGAGTKLEIK	3.46

biological target: T1, human CD19; test: as above; remark: another data set of the same source

Binder	Fold change binding [fold]
H1 / L1.3 (antibody, V domains shown, vs H1L1 (Kabat): VL S52Q; also called 4G7 H1_L1.3) VH: EVQLVESGGGLVKPGGSLKLSCAASGYTFTSYVMHWVRQAPGKGLEWIGYINPYNDGTKYNEKFQGRVTISSDKSISTAYMELSSLRSEDTAMYYCARGTYYYGSRVFDYWGQGTLVTVSS VL: DIVMTQSPATLSLSPGERATLSCRSSKSLLNSNGNTYLYWFQQKPGQSPQLLIYRMQNLASGVPDRFSGSGSGTEFTLTISSLEPEDFAVYYCMQHLEYPFTFGAGTKLEIK	1.85
H1 / L1.8 (antibody, V domains shown, vs H1L1 (Kabat): VL S52K; also called 4G7 H1_L1.8) VH: EVQLVESGGGLVKPGGSLKLSCAASGYTFTSYVMHWVRQAPGKGLEWIGYINPYNDGTKYNEKFQGRVTISSDKSISTAYMELSSLRSEDTAMYYCARGTYYYGSRVFDYWGQGTLVTVSS VL: DIVMTQSPATLSLSPGERATLSCRSSKSLLNSNGNTYLYWFQQKPGQSPQLLIYRMKNLASGVPDRFSGSGSGTEFTLTISSLEPEDFAVYYCMQHLEYPFTFGAGTKLEIK	2.18
H1 / L1.9 (antibody, V domains shown, vs H1L1 (Kabat): VL S52L; also called 4G7 H1_L1.9) VH: EVQLVESGGGLVKPGGSLKLSCAASGYTFTSYVMHWVRQAPGKGLEWIGYINPYNDGTKYNEKFQGRVTISSDKSISTAYMELSSLRSEDTAMYYCARGTYYYGSRVFDYWGQGTLVTVSS VL: DIVMTQSPATLSLSPGERATLSCRSSKSLLNSNGNTYLYWFQQKPGQSPQLLIYRMLNLASGVPDRFSGSGSGTEFTLTISSLEPEDFAVYYCMQHLEYPFTFGAGTKLEIK	1.84
H1 / L1.17 (antibody, V domains shown, vs H1L1 (Kabat): VL E93T; also called 4G7 H1_L1.17) VH: EVQLVESGGGLVKPGGSLKLSCAASGYTFTSYVMHWVRQAPGKGLEWIGYINPYNDGTKYNEKFQGRVTISSDKSISTAYMELSSLRSEDTAMYYCARGTYYYGSRVFDYWGQGTLVTVSS VL: DIVMTQSPATLSLSPGERATLSCRSSKSLLNSNGNTYLYWFQQKPGQSPQLLIYRMSNLASGVPDRFSGSGSGTEFTLTISSLEPEDFAVYYCMQHLTYPFTFGAGTKLEIK	1.57
H1 / L1.26 (antibody, V domains shown, vs H1L1 (Kabat): VL L27cQ; also called 4G7 H1_L1.26) VH: EVQLVESGGGLVKPGGSLKLSCAASGYTFTSYVMHWVRQAPGKGLEWIGYINPYNDGTKYNEKFQGRVTISSDKSISTAYMELSSLRSEDTAMYYCARGTYYYGSRVFDYWGQGTLVTVSS VL: DIVMTQSPATLSLSPGERATLSCRSSKSLQNSNGNTYLYWFQQKPGQSPQLLIYRMSNLASGVPDRFSGSGSGTEFTLTISSLEPEDFAVYYCMQHLEYPFTFGAGTKLEIK	1.73
